Measurements taken from paper PMC3536697.
Values joined by “and” are separate entries in the source; they are usually repeats but may differ in a detail not shown here. Equal values may be shown once. Blank lines part the entries; values can stand above or below the substance they belong to.

Key:
[1] = system: CaStn1N K98E/K170E;CaTen1 (Candida albicans;Candida albicans); assay: UV crosslinking; settings: single Iodo-dU; EMSA: 10 mM Tris-HCl pH 8.0, 2 mM MgCl2, 1 mM spermidine, 1 mM DTT, 10% glycerol, 22 C; UV crosslinking: 50 mM Hepes-NaOH pH 7.5, 10% glycerol, 30 mM …
[2] = system: CaStn1N;CaTen1 (Candida albicans;Candida albicans); assay: UV crosslinking; settings: reference; normalized to Ten1 adduct; single Iodo-dU; EMSA: 10 mM Tris-HCl pH 8.0, 2 mM MgCl2, 1 mM spermidine, 1 mM DTT, 10% glycerol, 22 C; UV crosslinking: 50 mM Hepes-NaOH pH 7.5, 10% glycerol, 30 mM …
[3] = target: SUMO-CgCdc13-FLAG fusion protein (Candida glabrata Cdc13) (Candida glabrata); assay: co-sedimentation; purified CST complex on a 15-30% glycerol gradient; fractions by Western with anti-SUMO (Cdc13, Stn1) and anti-GST (Ten1); 500 kDa fraction also in serial two fold dilutions with anti-SUMO
[4] = target: SUMO-CgCdc13-FLAG fusion protein (Candida glabrata Cdc13) (Candida glabrata); assay: co-IP; extract of E. coli co-expressing SUMO-Cdc13-FG and HIS6-SUMO-Stn1 (CS) on M2 (anti-FLAG) resin; Coomassie and Western (anti-FLAG, anti-HIS6)
[5] = target: SUMO-CgCdc13-FLAG fusion protein (Candida glabrata Cdc13) (Candida glabrata); assay: Coomassie staining intensities of the subunits in SDS-PAGE against BSA standards; purified CST complex (M2 fractions); intensities assumed proportional to molecular weights
[6] = target: SUMO-CgCdc13-FLAG fusion protein (Candida glabrata Cdc13) (Candida glabrata); assay: Western analysis of serial dilutions with anti-SUMO antibodies; serial three fold dilutions of the purified CST complex; SUMO tag present in both the Cdc13 and Stn1 fusions
[7] = target: Cdc13 (CST subunit);Stn1;Ten1 (Candida glabrata;Candida glabrata;Candida glabrata) (UniProt Q6FM89); assay: competition; settings: labeled CgTELX1 7.5 nM, CST 10 nM; EMSA: 10 mM Tris-HCl pH 8.0, 2 mM MgCl2, 1 mM spermidine, 1 mM DTT, 10% glycerol, 22 C; UV crosslinking: 50 mM Hepes-NaOH pH 7.5, 10% glycerol, 30 mM …
Cdc13 (Candida glabrata) = assay: competition; settings: labeled CgTELX1 7.5 nM, Cdc13 6 nM; EMSA: 10 mM Tris-HCl pH 8.0, 2 mM MgCl2, 1 mM spermidine, 1 mM DTT, 10% glycerol, 22 C; UV crosslinking: 50 mM Hepes-NaOH pH 7.5, 10% glycerol, 30 mM …

Substance: C. albicans telomere IdU oligo
binding signal (fold reduction vs WT) [1]: 3 | binding signal (fraction of WT Stn1N crosslinking) [2]: 1

stoichiometry N [3]: 2
Substance: SUMO-CgCdc13-FLAG fusion protein (Candida glabrata Cdc13) (natural protein)

stoichiometry N (Stn1 per Cdc13) [4]: 2 to 3 | stoichiometry N (Stn1 per Cdc13) [5]: 2 and 3 and 2.5 | stoichiometry N (Stn1 per Cdc13) [6]: 2.5 | stoichiometry N (Stn1 per Cdc13) [3]: 2.5
Substance: HIS6-SUMO-CgStn1 fusion protein (Candida glabrata Stn1) (natural protein)

Substance: TTAGGATCCATGAAAACTGAAGAAGGTAAACTGGTA [R1]
binding signal (fold more competitor than CgTELX1) [7]: > 200 | binding signal (fold more competitor than CgTELX1) (Cdc13 (Candida glabrata)): > 200

Substance: CGGTGTAAGGATGCACTTGAAACTCGGTGTAAGGATGCACTTGAAACT [LeTELX2]
binding signal (fold more competitor than CgTELX1) [7]: > 200 | binding signal (fold more competitor than CgTELX1) (Cdc13 (Candida glabrata)): > 200

Substance: TCTTTAGGGAGGTACTGATGTTCTTTAGGGAGGTACTGATGT [ClTELX2]
binding signal (fold more competitor than CgTELX1) [7]: 20 | binding signal (fold more competitor than CgTELX1) (Cdc13 (Candida glabrata)): 20
